Experimental findings from publication PMC9800250 are described below.

Changes are numbered by the printed parent chain. In names and notes the source's numbering stands.

Substrate in data set [1]: CC(C)=CCC/C(C)=C/COP(=O)(O)OP(=O)(O)O
In words: HPLC of S-adenosylhomocysteine formation, steady state. In kind it is biochemical, Streptomyces coelicolor. Conditions: 100 μM SAM, 10 mM MgCl2, pH 7.0, 30°C, 20 min, 2 μM enzyme.

Substrate in data set [2]: CC(C)=CCOP(=O)(O)OP(=O)(O)O
The data set is described as above. In kind it is biochemical, Streptomyces coelicolor. Conditions: 100 μM SAM, 10 mM MgCl2, pH 7.0, 30°C, 20 min, 5 μM enzyme.

What is called Km is the concentration of substrate that gives half-maximal velocity.

B1: ScGPPC2MT (GPP C2-methyltransferase) (Streptomyces coelicolor A3(2)) (protein)
chain: MTTETTTATATAKIPAPATPYQEDIARYWNNEARPVNLRLGDVDGLYHHHYGIGPVDRAALGDPEHSEYEKKVIAELHRLESAQAEFLMDHLGQAGPDDTLVDAGCGRGGSMVMAHRRFGSRVEGVTLSAAQADFGNRRARELRIDDHVRSRVCNMLDTPFDKGAVTASWNNESTMYVDLHDLFSEHSRFLKVGGRYVTITGCWNPRYGQPSKWVSQINAHFECNIHSRREYLRAMADNRLVPHTIVDLTPDTLPYWELRATSSLVTGIEKAFIESYRDGSFQYVLIAADRV
For B1, in data set [1], the Km is 0.88 ± 0.09 µM and the kcat entry is “(4.90 ± 0.16) × 10^−4 s^−1”.

B2: ScGPPC2MT (GPP C2-methyltransferase) (Streptomyces coelicolor A3(2); F222Y/G202M) (protein)
chain: B1 chain with G202M, F222Y
Regarding B2, in data set [2], the Km is 5.33 ± 0.81 µM and the kcat result is reported as “(9.59 ± 0.25) × 10^−5 s^−1”.
